Test results taken from patent US20150037339A1 (Regeneron, published 2015).

B1: H4H10430P (antibody, human IgG4, V domains shown)
VH: EVQLVESGGGLVQPGRSLRLSCKASGFAFDDFAMHWVRQAPGKGLEWVSGIVWNSGDIGYADSVKGRFTISRDNAKNSLYLQLNSLRTEDTALYFCVKDMVRGLMGFNYYGMDVWGQGTTVTVSS
VL: EIVLTQSPATLSLSPGERATLSCRASQTISTYLVWYRQRPGQAPSLLIYDASNRATDIPARFSGSGSGTDFTLTISSLEPEDFAVYYCQQRSNWPITFGQGTRLEIK
B2: H4H10442P2 (antibody, human IgG4, V domains shown)
VH: QVQLQESGPGLVKPSETLSITCTVSGGSFSSHFWTWIRQPPGKGLEWIGYLHYSGGTSYNPSLKSRVIISVDTSKNQFSLKLNSVTAADTAVYYCARARSGITFGGLIVPGSFDIWGQGTMVTVSS
VL: not shown
B3: H4H10446P2 (antibody, human IgG4, V domains shown)
VH: QVQLQESGPGLVKPSETLSLTCTVSGGSFSSHFWSWIRQPPGKGLEWIGYILYTGGTSFNPSLKSRVSMSVGTSKNQFSLKLSSVTAADTAVYYCARARSGITFTGIIVPGSFDIWGQGTMVTVSS
VL: not shown

What was measured:
Activin A [1] = target: T1, Activin A (human, UniProt P08476 311-426); test: cell-based or functional assay
T1 sequence: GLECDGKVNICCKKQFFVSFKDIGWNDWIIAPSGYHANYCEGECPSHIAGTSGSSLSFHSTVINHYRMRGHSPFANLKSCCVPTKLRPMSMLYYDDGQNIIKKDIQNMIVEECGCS

Activin AB [2] = target: T2, Activin AB (human, UniProt P08476 311-426; P09529 293-407); test: cell-based or functional assay
T2 chain 1: T1 sequence
T2 chain 2: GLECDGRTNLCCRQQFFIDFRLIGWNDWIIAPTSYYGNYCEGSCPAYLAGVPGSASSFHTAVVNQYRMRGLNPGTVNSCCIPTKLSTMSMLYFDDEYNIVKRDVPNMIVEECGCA

Activin AC [3] = target: T3, Activin AC (human, UniProt P55103 237-352); test: cell-based or functional assay
T3 sequence 1: T1 sequence
T3 sequence 2: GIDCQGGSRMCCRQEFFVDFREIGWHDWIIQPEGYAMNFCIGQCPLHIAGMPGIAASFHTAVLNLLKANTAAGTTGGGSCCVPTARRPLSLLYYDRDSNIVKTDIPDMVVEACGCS

Activin AB [4] = target: T2, Activin AB; test: SPR (Biacore), mAb captured on anti-Fc, Activin AB injected, 25 C
How it was run: (§1)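 Reported half-lives follow ln2/(60*kd) in minutes, with KD taken as kd/ka. Both rest on fits to binding data from 240 s of association and 600 s of buffer dissociation.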

Activin AB [5] = target: T2, Activin AB; test: SPR (Biacore), mAb captured on anti-Fc, Activin AB injected, 37 C
How it was run: as §1

Activin AC [6] = target: T3, Activin AC; test: SPR (Biacore), mAb captured on anti-Fc, Activin AC injected, 25 C
How it was run: as §1

Activin AC [7] = target: T3, Activin AC; test: SPR (Biacore), mAb captured on anti-Fc, Activin AC injected, 37 C
How it was run: as §1

Activin A [8] = target: T1, Activin A; test: SPR (Biacore 4000), captured on anti-human Fc, 200 nM ligand injected, 37 C
Method: (§2) For the binding experiment, a Biacore 4000 instrument was used. […] All Biacore binding studies were performed in HBS-T running buffer (0.01 M HEPES pH 7.4, 0.5 M NaCl, 3 mM EDTA, 0.5 mg/ml bovine serum albumin, 0.05% v/v Surfactant P20). […] All binding measurements were performed at 37° C. […] Over the captured antibody surface was injected the TGF-beta family ligands through concentrations ranging from 3.1 nM to 200 nM.

Activin B = target: T4, Activin B (human, UniProt P09529 293-407); test: as above
T4 construct: Homodimer of two betaB subunits; bought (R&D Systems #659-AB)
T4 chain: T2 chain 2
Method: as §2

Activin AB [9] = target: T2, Activin AB; test: as above
Method: as §2

Activin AC [10] = target: T3, Activin AC; test: as above
Method: as §2

hBMP2 = target: T5, hBMP2 (human, UniProt P12643 283-396); test: as above
T5 construct: Bought protein; also called BPM2
Method: as §2

hBMP4 = target: T6, hBMP4 (human, UniProt P12644 293-408); test: as above
T6 construct: Bought protein
T6 sequence (looked up): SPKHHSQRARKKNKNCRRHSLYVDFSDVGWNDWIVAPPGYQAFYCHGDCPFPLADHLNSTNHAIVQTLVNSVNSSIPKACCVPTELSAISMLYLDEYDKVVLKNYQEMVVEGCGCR
Method: as §2

hBMP6 = target: T7, hBMP6 (human, UniProt P22004 382-513, limits assumed); test: as above
T7 construct: Bought protein
T7 sequence (looked up): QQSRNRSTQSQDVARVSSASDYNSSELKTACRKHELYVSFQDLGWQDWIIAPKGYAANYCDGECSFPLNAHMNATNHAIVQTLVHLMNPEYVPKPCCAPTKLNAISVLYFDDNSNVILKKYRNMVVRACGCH
Method: as §2

hBMP7 = target: T8, hBMP7 (human, UniProt P18075 293-431); test: as above
T8 construct: Bought protein
T8 sequence (looked up): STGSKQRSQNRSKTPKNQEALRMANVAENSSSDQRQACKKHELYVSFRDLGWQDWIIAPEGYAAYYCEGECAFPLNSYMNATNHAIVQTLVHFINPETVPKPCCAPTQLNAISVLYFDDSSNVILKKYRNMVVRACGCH
Method: as §2

hBMP9 = target: T9, hBMP9 (human, UniProt Q9UK05 320-429); test: as above
T9 construct: Bought protein
T9 sequence (looked up): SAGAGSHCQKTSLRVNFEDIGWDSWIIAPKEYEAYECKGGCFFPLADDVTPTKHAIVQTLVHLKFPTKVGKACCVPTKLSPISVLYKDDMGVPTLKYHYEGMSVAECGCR
Method: as §2

hBMP10 = target: T10, hBMP10 (human, UniProt O95393 317-424); test: as above
T10 construct: Bought protein
T10 sequence (looked up): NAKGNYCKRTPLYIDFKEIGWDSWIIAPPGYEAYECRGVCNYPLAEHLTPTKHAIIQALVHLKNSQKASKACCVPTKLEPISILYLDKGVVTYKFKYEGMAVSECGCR
Method: as §2

GDF8 = target: T11, GDF8 (human, UniProt O14793 267-375); test: as above
T11 construct: Bought (R&D Systems #788-G8); also called hGDF8; growth and differentiation factor-8
Method: as §2

GDF11 = target: T12, GDF11 (human, UniProt O95390 299-407); test: as above
T12 construct: Bought protein; also called hGDF11
Method: as §2

T5 sequence (P12643 283-396 limits assumed): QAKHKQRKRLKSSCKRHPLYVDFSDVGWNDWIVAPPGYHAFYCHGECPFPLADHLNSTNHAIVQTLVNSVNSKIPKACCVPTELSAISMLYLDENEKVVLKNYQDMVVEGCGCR
T12 sequence (O95390 299-407 limits assumed): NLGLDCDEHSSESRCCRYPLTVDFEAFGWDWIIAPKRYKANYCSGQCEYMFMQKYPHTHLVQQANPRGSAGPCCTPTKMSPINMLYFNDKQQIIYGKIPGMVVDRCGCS

Row | Binder | IC50 [M], inhibition of 100 pM Activin A in A204/CAGAx12-Luc Smad2/3-luciferase bioassay (Activin A [1]) [M] | IC50 [M], inhibition of 30 pM Activin AB in A204/CAGAx12-Luc Smad2/3-luciferase bioassay (Activin AB [2]) [M] | IC50 [M], inhibition of 4 nM Activin AC in A204/CAGAx12-Luc Smad2/3-luciferase bioassay (Activin AC [3]) [M] | 50 nM Ag Bound (RU) (Activin AB [4]) | Kd (Activin AB [4]) [nM] | koff (Activin AB [4]) [s⁻¹] | kon (Activin AB [4]) [M⁻¹ s⁻¹] | t1/2 (Activin AB [4]) [min] | 50 nM Ag Bound (RU) (Activin AB [5]) | Kd (Activin AB [5]) [nM] | koff (Activin AB [5]) [s⁻¹] | kon (Activin AB [5]) [M⁻¹ s⁻¹] | t1/2 (Activin AB [5]) [min] | 50 nM Ag Bound (RU) (Activin AC [6]) | Kd (Activin AC [6]) [nM] | koff (Activin AC [6]) [s⁻¹] | kon (Activin AC [6]) [M⁻¹ s⁻¹] | t1/2 (Activin AC [6]) [min] | 50 nM Ag Bound (RU) (Activin AC [7]) | Kd (Activin AC [7]) [nM] | other results
1 | B1 | 6.1e-11 | 1e-10 | 9.3e-10 | 33 | 0.0185 | 0.000217 | 1.17e+07 | 53.3 | 41 | 0.0535 | 0.000541 | 1.01e+07 | 21.3 | 23.6 | 8.86 | 0.0109 | 1.23e+06 | 1.1 | 25.3 | 16.7 | koff (Activin AC [7]): 0.02 s⁻¹; kon (Activin AC [7]): 1.2e+06 M⁻¹ s⁻¹; t1/2 (Activin AC [7]): 0.6 min; binding response (resonance units) for 200 nM ligand (Activin A [8]): 69.1 RU; binding response (resonance units) for 200 nM ligand (Activin B): 0.4 RU; binding response (resonance units) for 200 nM ligand (Activin AB [9]): 95 RU; binding response (resonance units) for 200 nM ligand (Activin AC [10]): 34.8 RU; binding response (resonance units) for 200 nM ligand (hBMP2): -1.7 RU; binding response (resonance units) for 200 nM ligand (hBMP4): -0.6 RU; binding response (resonance units) for 200 nM ligand (hBMP6): 5.7 RU; binding response (resonance units) for 200 nM ligand (hBMP7): 6.4 RU; binding response (resonance units) for 200 nM ligand (hBMP9): -0.6 RU; binding response (resonance units) for 200 nM ligand (hBMP10): 0.3 RU; binding response (resonance units) for 200 nM ligand (GDF8): -0.1 RU; binding response (resonance units) for 200 nM ligand (GDF11): 3 RU
2 | B2 | 5.6e-11 | 2.2e-09 | 6.5e-09 | 34.6 | 0.32 | 0.00177 | 5.53e+06 | 6.5 | 45.9 | 0.464 | 0.00425 | 9.17e+06 | 2.7 | 18.6 | 1.57 | 0.00205 | 1.31e+06 | 5.6 | 21.4 | 4.1 | koff (Activin AC [7]): 0.00599 s⁻¹; kon (Activin AC [7]): 1.46e+06 M⁻¹ s⁻¹; t1/2 (Activin AC [7]): 1.9 min; binding response (resonance units) for 200 nM ligand (Activin A [8]): 63.9 RU; binding response (resonance units) for 200 nM ligand (Activin B): -1.8 RU; binding response (resonance units) for 200 nM ligand (Activin AB [9]): 65.2 RU; binding response (resonance units) for 200 nM ligand (Activin AC [10]): 14.2 RU; binding response (resonance units) for 200 nM ligand (hBMP2): -2.3 RU; binding response (resonance units) for 200 nM ligand (hBMP4): -0.7 RU; binding response (resonance units) for 200 nM ligand (hBMP6): 1.1 RU; binding response (resonance units) for 200 nM ligand (hBMP7): 1.5 RU; binding response (resonance units) for 200 nM ligand (hBMP9): 0 RU; binding response (resonance units) for 200 nM ligand (hBMP10): -0.7 RU; binding response (resonance units) for 200 nM ligand (GDF8): 0.5 RU; binding response (resonance units) for 200 nM ligand (GDF11): 1 RU
3 | B3 | 4.7e-11 | 8.2e-09 | 5.6e-09 | 31.9 | 0.815 | 0.00406 | 4.99e+06 | 2.8 | 41.5 | 1.34 | 0.00817 | 6.08e+06 | 1.4 | 12.6 | 11.8 | 0.0122 | 1.04e+06 | 0.9 | 14.4 | 22.5 | koff (Activin AC [7]): 0.0216 s⁻¹; kon (Activin AC [7]): 959000 M⁻¹ s⁻¹; t1/2 (Activin AC [7]): 0.5 min; binding response (resonance units) for 200 nM ligand (Activin A [8]): 53.2 RU; binding response (resonance units) for 200 nM ligand (Activin B): 2.6 RU; binding response (resonance units) for 200 nM ligand (Activin AB [9]): 66.7 RU; binding response (resonance units) for 200 nM ligand (Activin AC [10]): 15.2 RU; binding response (resonance units) for 200 nM ligand (hBMP2): 3.3 RU; binding response (resonance units) for 200 nM ligand (hBMP4): 0.8 RU; binding response (resonance units) for 200 nM ligand (hBMP6): 5.3 RU; binding response (resonance units) for 200 nM ligand (hBMP7): 5.7 RU; binding response (resonance units) for 200 nM ligand (hBMP9): -0.3 RU; binding response (resonance units) for 200 nM ligand (hBMP10): 0.5 RU; binding response (resonance units) for 200 nM ligand (GDF8): 0.7 RU; binding response (resonance units) for 200 nM ligand (GDF11): 1.8 RU
